The results in this text go back to patent US20110159513A1.

Read-outs that look alike come from different tables or passages of the source.

What all share (assay): cell-based or functional assay
The target of assay [1] is ErbB1 on NCI-ADRr cells (UniProt P00533).
The target in assay [2] is ErbB3 on tumour cells (NCI-ADRr, OVCAR8, OVCAR8-HER2) (UniProt P21860).
Assay [3] concerns the target ErbB1 on NCI-ADRr cells (UniProt P00533). This is another data set of the same source.

In the assay with ErbB1 on NCI-ADRr cells [1], “transforming growth factor alpha (from UniProt P01135 40-89) (ligand)” yielded a pErbB1 EC50 [nM], NCI-ADRr of 30 nM.
As to “betacellulin (from UniProt P35070 32-111) (ligand)”, the pErbB1 EC50 [nM], NCI-ADRr in the assay with ErbB1 on NCI-ADRr cells [1] was 5.7 nM.
“heparin-binding epidermal growth factor (from UniProt Q99075 63-148) (ligand)”: in the assay with ErbB1 on NCI-ADRr cells [1], the pErbB1 % stimulation at 5 min relative to maximum amounted to 87% and the pErbB1 EC50 [nM], NCI-ADRr came out at 21 nM.

B1: heregulin HRG1-β (ligand, UniProt Q02297-6 177-241, looked up)
chain: SHLVKCAEKEKTFCVNGGECFMVKDLSNPSRYLCKCPNEFTGDRCQNYVMASFYKHLGIEFMEAE
In assay [2], B1 had a pErbB3 % stimulation at 5 min relative to maximum of 100% and a pErbB3 EC50 [nM], NCI-ADRr of 9.9 nM.

B2: Epigen (ligand, UniProt Q6UW88 23-104, looked up)
chain: AAVTVTPPITAQQGNWTVNKTEADNIEGPIALKFSHLCLEDHNSYCINGACAFHHELEKAICRCFTGYTGERCEHLTLTSYA
Take B2: the pErbB1 % stimulation at 5 min relative to maximum in the assay with ErbB1 on NCI-ADRr cells [3] was determined as 12%.

B3: amphiregulin (ligand, UniProt P15514 101-198, looked up)
chain: SVRVEQVVKPPQNKTESENTSDKPKRKKKGGKNGKNRRNRKKKNPCNAEFQNFCIHGECKYIEHLEAVTCKCQQEYFGERCGEKSMKTHSMIDSSLSK
For B3, in the assay with ErbB1 on NCI-ADRr cells [3], the pErbB1 % stimulation at 5 min relative to maximum turned out to be 95% and the pErbB1 EC50 [nM], NCI-ADRr worked out at 37 nM.
